Results published in the supplement of paper PMC9112550, “Optimization of the antimicrobial peptide Bac7 by deep mutational scanning” (BMC Biology, 2022).

Test system: Escherichia coli TOP10
Assay: shrunken log2 fold change of peptide-encoding DNA abundance (4.5 h post-induction vs induction); higher = less antimicrobial activity (less host growth inhibition)
Settings: time post-induction: 4.5 h; library: site-saturation at positions 5, 18, 19, 20
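Also: peptides expressed intracellularly from a pBAD plasmid library in pooled LB shake-flask culture, induced with 0.3% L-arabinose, DNA abundance read by NGS, three biological replicates, DESeq2 with apeglm shrinkage.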

Row | Sequence | shrunken log2 fold change
1 | RRIRRRPPRLPRPRPRPWSKPRP | -0.225
2 | RRIRQRPPRLPRPRPRPNCEPRP | 0.117
3 | RRIRIRPPRLPRPRPRPALKPRP | -0.0298
4 | RRIRARPPRLPRPRPRPIKIPRP | -0.095
5 | RRIRSRPPRLPRPRPRPGCWPRP | 0.593
6 | RRIRIRPPRLPRPRPRPVFGPRP | -0.0092
7 | RRIRIRPPRLPRPRPRPNAKPRP | 0.0022
8 | RRIRNRPPRLPRPRPRPTQAPRP | 0.24
9 | RRIRTRPPRLPRPRPRPDPWPRP | 0.0451
10 | RRIRPRPPRLPRPRPRPVEEPRP | 0.54
11 | RRIRIRPPRLPRPRPRPIDFPRP | -0.0103
12 | RRIRARPPRLPRPRPRPSDDPRP | 0.282
13 | RRIRARPPRLPRPRPRPDCRPRP | 0.0473
14 | RRIRFRPPRLPRPRPRPIACPRP | -0.0937
15 | RRIRVRPPRLPRPRPRPMSFPRP | -0.157
16 | RRIRWRPPRLPRPRPRPLTPPRP | 0.412
17 | RRIRMRPPRLPRPRPRPEEWPRP | 0.00599
18 | RRIRTRPPRLPRPRPRPLEWPRP | 0.178
19 | RRIRVRPPRLPRPRPRPKNRPRP | 0.137
20 | RRIRSRPPRLPRPRPRPPHYPRP | 0.132
21 | RRIRQRPPRLPRPRPRPYDMPRP | -0.626
22 | RRIRQRPPRLPRPRPRPIPEPRP | 0.0343
23 | RRIRTRPPRLPRPRPRPFGRPRP | 0.0376
24 | RRIRYRPPRLPRPRPRPQHIPRP | -0.754
25 | RRIRARPPRLPRPRPRPYPGPRP | 0.0384

Row | Sequence | shrunken log2 fold change
26 | RRIRLRPPRLPRPRPRPLYEPRP | -0.488
27 | RRIRERPPRLPRPRPRPMEHPRP | 0.0106
28 | RRIRHRPPRLPRPRPRPVIEPRP | -0.0264
29 | RRIRTRPPRLPRPRPRPAHCPRP | -0.168
30 | RRIRFRPPRLPRPRPRPAMTPRP | 0.00388
31 | RRIRNRPPRLPRPRPRPYYWPRP | -0.367
32 | RRIRPRPPRLPRPRPRPHLPPRP | -0.126
33 | RRIRSRPPRLPRPRPRPPIMPRP | -0.0485
34 | RRIRARPPRLPRPRPRPCTCPRP | -0.199
35 | RRIRKRPPRLPRPRPRPMHFPRP | 0.0573
36 | RRIRHRPPRLPRPRPRPKDEPRP | 0.0349
37 | RRIRNRPPRLPRPRPRPEEGPRP | 0.234
38 | RRIRRRPPRLPRPRPRPFRMPRP | -0.0671
39 | RRIRHRPPRLPRPRPRPCAKPRP | -0.251
40 | RRIRSRPPRLPRPRPRPWFNPRP | -0.227
41 | RRIRSRPPRLPRPRPRPRCQPRP | 0.0737
42 | RRIRMRPPRLPRPRPRPCNAPRP | 0.0226
43 | RRIRHRPPRLPRPRPRPAGVPRP | 0.141
44 | RRIRARPPRLPRPRPRPDLVPRP | 0.249
45 | RRIRLRPPRLPRPRPRPSTEPRP | 0.0451
46 | RRIRIRPPRLPRPRPRPYKPPRP | -0.0367
47 | RRIRPRPPRLPRPRPRPDDCPRP | -0.0649
48 | RRIRYRPPRLPRPRPRPHTIPRP | -0.852
49 | RRIRLRPPRLPRPRPRPDRDPRP | -0.154
50 | RRIRGRPPRLPRPRPRPCKYPRP | -0.533

Row | Sequence | shrunken log2 fold change
51 | RRIRVRPPRLPRPRPRPPTRPRP | 0.508
52 | RRIRVRPPRLPRPRPRPKAMPRP | 0.0194
53 | RRIRFRPPRLPRPRPRPNEAPRP | -0.0305
54 | RRIRGRPPRLPRPRPRPCPWPRP | -0.149
55 | RRIRCRPPRLPRPRPRPKEMPRP | 0.0303
56 | RRIRNRPPRLPRPRPRPHHVPRP | -0.0011
57 | RRIRQRPPRLPRPRPRPVNYPRP | -0.00127
58 | RRIRNRPPRLPRPRPRPSQYPRP | -0.268
59 | RRIRRRPPRLPRPRPRPVCDPRP | 0.621
60 | RRIRHRPPRLPRPRPRPMFRPRP | -0.422
61 | RRIRYRPPRLPRPRPRPSSEPRP | 0.0163
62 | RRIRDRPPRLPRPRPRPSHLPRP | -0.248
63 | RRIRVRPPRLPRPRPRPIGLPRP | -0.0479
64 | RRIRVRPPRLPRPRPRPGDPPRP | 0.172
65 | RRIRGRPPRLPRPRPRPHWMPRP | 0.0496
66 | RRIRHRPPRLPRPRPRPCLYPRP | -0.057
67 | RRIRFRPPRLPRPRPRPWSCPRP | -0.175
68 | RRIRTRPPRLPRPRPRPQDSPRP | -0.153
69 | RRIRCRPPRLPRPRPRPRYEPRP | -0.0468
70 | RRIRWRPPRLPRPRPRPWINPRP | -0.506
71 | RRIRCRPPRLPRPRPRPDGPPRP | 0.185
72 | RRIRMRPPRLPRPRPRPGLTPRP | 1.02
73 | RRIRCRPPRLPRPRPRPWEVPRP | 0.431
74 | RRIRVRPPRLPRPRPRPSGKPRP | 0.0575
75 | RRIRLRPPRLPRPRPRPKFDPRP | -0.115

Row | Sequence | shrunken log2 fold change
76 | RRIRLRPPRLPRPRPRPQGEPRP | 0.125
77 | RRIRYRPPRLPRPRPRPQSDPRP | -0.251
78 | RRIRERPPRLPRPRPRPWFLPRP | -0.628
79 | RRIRCRPPRLPRPRPRPTYSPRP | -1.01
80 | RRIRQRPPRLPRPRPRPWCVPRP | -0.115
81 | RRIRYRPPRLPRPRPRPGFWPRP | 0.689
82 | RRIRRRPPRLPRPRPRPDREPRP | 0.0377
83 | RRIRKRPPRLPRPRPRPHYEPRP | -0.0316
84 | RRIRERPPRLPRPRPRPFDVPRP | -0.0685
85 | RRIRTRPPRLPRPRPRPYDIPRP | -0.795
86 | RRIRWRPPRLPRPRPRPSEIPRP | -0.178
87 | RRIRIRPPRLPRPRPRPHIKPRP | -1.12
88 | RRIRPRPPRLPRPRPRPAPRPRP | 0.992
89 | RRIRGRPPRLPRPRPRPILCPRP | 0.174
90 | RRIRERPPRLPRPRPRPCGFPRP | -0.303
91 | RRIRLRPPRLPRPRPRPRRIPRP | 0.214
92 | RRIRIRPPRLPRPRPRPISPPRP | 0.0361
93 | RRIRCRPPRLPRPRPRPAPAPRP | 0.84
94 | RRIRERPPRLPRPRPRPEDAPRP | -0.079
95 | RRIRQRPPRLPRPRPRPLIVPRP | -0.149
96 | RRIRDRPPRLPRPRPRPHGAPRP | 0.211
97 | RRIRWRPPRLPRPRPRPANVPRP | -0.624
98 | RRIRLRPPRLPRPRPRPMWFPRP | 0.106
99 | RRIRSRPPRLPRPRPRPNSCPRP | -0.121
100 | RRIRTRPPRLPRPRPRPPSFPRP | 0.264

Row | Sequence | shrunken log2 fold change
101 | RRIRMRPPRLPRPRPRPPKVPRP | 0.272
102 | RRIRERPPRLPRPRPRPKGWPRP | 0.493
103 | RRIRGRPPRLPRPRPRPQEDPRP | 0.291
104 | RRIRARPPRLPRPRPRPEPGPRP | 0.98
105 | RRIRHRPPRLPRPRPRPEINPRP | -0.253
106 | RRIRIRPPRLPRPRPRPNSWPRP | -0.691
107 | RRIRHRPPRLPRPRPRPHFVPRP | -0.136
108 | RRIRNRPPRLPRPRPRPEMIPRP | -0.0601
109 | RRIRQRPPRLPRPRPRPVKLPRP | -0.0467
110 | RRIRERPPRLPRPRPRPSPYPRP | -0.277
111 | RRIRTRPPRLPRPRPRPPCKPRP | -0.193
112 | RRIRGRPPRLPRPRPRPEEHPRP | 0.131
113 | RRIRVRPPRLPRPRPRPLNTPRP | -0.224
114 | RRIRMRPPRLPRPRPRPDIRPRP | -0.00649
115 | RRIRQRPPRLPRPRPRPKVSPRP | -0.073
116 | RRIRERPPRLPRPRPRPARWPRP | 0.592
117 | RRIRDRPPRLPRPRPRPFAIPRP | -0.0496
118 | RRIRPRPPRLPRPRPRPYREPRP | -0.073
119 | RRIRRRPPRLPRPRPRPDRYPRP | -0.0438
120 | RRIRSRPPRLPRPRPRPFILPRP | -0.695
121 | RRIRDRPPRLPRPRPRPDVDPRP | 0.0482
122 | RRIRSRPPRLPRPRPRPAAGPRP | 0.585
123 | RRIRNRPPRLPRPRPRPSCIPRP | -0.507
124 | RRIRHRPPRLPRPRPRPISHPRP | -0.0873
125 | RRIRARPPRLPRPRPRPLFIPRP | -0.331

Row | Sequence | shrunken log2 fold change
126 | RRIRARPPRLPRPRPRPAGQPRP | 0.143
127 | RRIRRRPPRLPRPRPRPISRPRP | -0.0551
128 | RRIRSRPPRLPRPRPRPRQGPRP | 0.185
129 | RRIRHRPPRLPRPRPRPYCPPRP | -0.0225
130 | RRIRKRPPRLPRPRPRPSVFPRP | 0.244
131 | RRIRARPPRLPRPRPRPGTGPRP | 0.158
132 | RRIRLRPPRLPRPRPRPHRKPRP | -0.295
133 | RRIRVRPPRLPRPRPRPWSHPRP | -0.125
134 | RRIRPRPPRLPRPRPRPLIGPRP | 0.009
135 | RRIRSRPPRLPRPRPRPCDEPRP | 0.124
136 | RRIRARPPRLPRPRPRPCYRPRP | -0.141
137 | RRIRYRPPRLPRPRPRPRMEPRP | -0.0654
138 | RRIRHRPPRLPRPRPRPTYLPRP | -0.133
139 | RRIRARPPRLPRPRPRPEYSPRP | 0.0132
140 | RRIRHRPPRLPRPRPRPCARPRP | -0.0479
141 | RRIRIRPPRLPRPRPRPLFLPRP | -0.653
142 | RRIRQRPPRLPRPRPRPFHYPRP | -0.996
143 | RRIRLRPPRLPRPRPRPTIYPRP | -0.334
144 | RRIRWRPPRLPRPRPRPNNRPRP | -0.559
145 | RRIRFRPPRLPRPRPRPPGYPRP | 0.0848
146 | RRIRTRPPRLPRPRPRPPRRPRP | 0.386
147 | RRIRVRPPRLPRPRPRPLTGPRP | -0.396
148 | RRIRFRPPRLPRPRPRPMRNPRP | 0.92
149 | RRIRIRPPRLPRPRPRPIKQPRP | 0.00391
150 | RRIRTRPPRLPRPRPRPTRMPRP | 0.196
